Reference: paper PMC9482650, “Quantitative fragmentomics allow affinity mapping of interactomes” (Nature Communications, 2022)

T1: DLG3_1, Q92796
T1 sequence (Q92796 125-227, limits assumed, looked up): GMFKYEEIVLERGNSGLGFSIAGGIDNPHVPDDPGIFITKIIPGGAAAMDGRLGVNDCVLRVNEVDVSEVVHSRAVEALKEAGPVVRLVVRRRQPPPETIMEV

T2: DVL3, Q92997
T2 sequence (Q92997 244-331, limits assumed, looked up): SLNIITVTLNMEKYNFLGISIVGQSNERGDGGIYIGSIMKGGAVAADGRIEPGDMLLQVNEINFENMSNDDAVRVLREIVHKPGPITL

T3: APBA2_1, Q99767
T3 sequence (Q99767 563-664, limits assumed, looked up): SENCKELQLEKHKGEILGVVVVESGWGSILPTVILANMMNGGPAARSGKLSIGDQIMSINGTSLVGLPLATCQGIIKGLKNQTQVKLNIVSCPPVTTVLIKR

T4: SYNJ2BP, P57105
T4 sequence (P57105 8-110, limits assumed, looked up): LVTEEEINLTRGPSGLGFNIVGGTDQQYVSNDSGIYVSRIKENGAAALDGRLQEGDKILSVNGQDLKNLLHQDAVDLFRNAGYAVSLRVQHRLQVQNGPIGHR

T5: SNTB1, Q13884
T5 sequence (Q13884 107-205, limits assumed, looked up): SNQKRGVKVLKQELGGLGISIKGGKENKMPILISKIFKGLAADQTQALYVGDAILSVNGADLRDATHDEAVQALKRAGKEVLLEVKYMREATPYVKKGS

T6: FRMPD1, Q5SYB0
T6 sequence (Q5SYB0 52-145, limits assumed, looked up): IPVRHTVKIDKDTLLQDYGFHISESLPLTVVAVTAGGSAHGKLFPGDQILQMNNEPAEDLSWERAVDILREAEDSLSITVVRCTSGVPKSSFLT

T7: PDZD7_3, Q9H5P4
T7 sequence (Q9H5P4 857-944, limits assumed, looked up): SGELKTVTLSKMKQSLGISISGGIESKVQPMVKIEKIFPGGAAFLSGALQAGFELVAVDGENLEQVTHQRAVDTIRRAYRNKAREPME

T8: GRIP1_5, Q9Y3R0
T8 sequence (Q9Y3R0 568-668, limits assumed, looked up): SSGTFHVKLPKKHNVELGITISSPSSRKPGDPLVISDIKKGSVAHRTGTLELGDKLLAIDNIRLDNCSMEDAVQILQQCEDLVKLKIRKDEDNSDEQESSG

T9: DLG3_2, Q92796
T9 sequence (Q92796 221-321, limits assumed, looked up): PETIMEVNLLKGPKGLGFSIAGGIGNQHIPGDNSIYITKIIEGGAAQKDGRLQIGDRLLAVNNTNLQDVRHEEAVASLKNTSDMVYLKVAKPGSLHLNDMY

T10: APBA3_1, O96018
T10 sequence (O96018 389-490, limits assumed, looked up): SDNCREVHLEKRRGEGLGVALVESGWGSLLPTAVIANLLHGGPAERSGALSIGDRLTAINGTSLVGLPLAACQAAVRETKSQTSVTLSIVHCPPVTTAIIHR

T11: SHANK1, Q9Y566
T11 sequence (Q9Y566 658-767, limits assumed, looked up): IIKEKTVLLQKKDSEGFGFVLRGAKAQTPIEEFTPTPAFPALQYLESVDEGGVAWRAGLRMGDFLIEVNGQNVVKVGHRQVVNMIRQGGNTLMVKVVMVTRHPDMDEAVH

T12: ARHGAP21, Q5T5U3
T12 sequence (Q5T5U3 45-169, limits assumed, looked up): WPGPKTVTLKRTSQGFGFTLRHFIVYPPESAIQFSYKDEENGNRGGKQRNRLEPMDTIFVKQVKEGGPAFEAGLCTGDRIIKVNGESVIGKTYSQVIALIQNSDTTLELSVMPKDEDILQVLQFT

T13: TJP3_3, O95049
T13 sequence (O95049 375-456, limits assumed, looked up): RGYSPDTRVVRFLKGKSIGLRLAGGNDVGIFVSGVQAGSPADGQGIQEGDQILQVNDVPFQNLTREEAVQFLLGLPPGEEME

B1: SLC22A3, O75751 (peptide)
chain: KKTPVSRSHL

Target: T1, DLG3_1, Q92796
Experiment: holdup assay
Parameters: key: below the threshold = too weak to quantify, mostly under pKd 3.1 to 4
Conditions: plain residues with an end cap or a label only (N-terminal biotin on a linker: ado-ado)

Row | pKd | Binder
1 | below the threshold | B1

Target: HTRA1, Q92743
Experiment: holdup assay
Parameters: key: below the threshold = too weak to quantify, mostly under pKd 3.1 to 4
Conditions: plain residues with an end cap or a label only (N-terminal biotin on a linker: ado-ado)

HTRA1, Q92743, sequence (Q92743 360-477): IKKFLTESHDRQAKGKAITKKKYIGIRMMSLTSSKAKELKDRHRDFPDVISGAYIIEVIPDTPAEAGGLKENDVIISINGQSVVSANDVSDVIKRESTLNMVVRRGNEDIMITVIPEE

Row | pKd | Binder
2 | 3.61 | B1

Target: MAST1, Q9Y2H9
Experiment: holdup assay
Parameters: key: below the threshold = too weak to quantify, mostly under pKd 3.1 to 4
Conditions: plain residues with an end cap or a label only (N-terminal biotin on a linker: ado-ado)

MAST1, Q9Y2H9, sequence (Q9Y2H9 962-1065): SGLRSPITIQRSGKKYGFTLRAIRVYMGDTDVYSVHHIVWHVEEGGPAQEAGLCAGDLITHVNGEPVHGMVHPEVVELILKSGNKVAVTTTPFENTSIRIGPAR

Row | pKd | Binder
3 | below the threshold | B1

Target: T2, DVL3, Q92997
Experiment: holdup assay
Parameters: key: below the threshold = too weak to quantify, mostly under pKd 3.1 to 4
Conditions: plain residues with an end cap or a label only (N-terminal biotin on a linker: ado-ado)

Row | pKd | Binder
4 | below the threshold | B1

Target: PDLIM1, O00151
Experiment: holdup assay
Parameters: key: below the threshold = too weak to quantify, mostly under pKd 3.1 to 4
Conditions: plain residues with an end cap or a label only (N-terminal biotin on a linker: ado-ado)

PDLIM1, O00151, sequence (O00151 1-87): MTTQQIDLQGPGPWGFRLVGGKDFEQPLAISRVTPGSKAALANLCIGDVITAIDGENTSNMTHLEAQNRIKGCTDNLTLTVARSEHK

Row | pKd | Binder
5 | below the threshold | B1

Target: T3, APBA2_1, Q99767
Experiment: holdup assay
Parameters: key: below the threshold = too weak to quantify, mostly under pKd 3.1 to 4
Conditions: plain residues with an end cap or a label only (N-terminal biotin on a linker: ado-ado)

Row | pKd | Binder
6 | below the threshold | B1

Target: DLG1_2, Q12959
Experiment: holdup assay
Parameters: key: below the threshold = too weak to quantify, mostly under pKd 3.1 to 4
Conditions: plain residues with an end cap or a label only (N-terminal biotin on a linker: ado-ado)

DLG1_2, Q12959, sequence (Q12959 314-412): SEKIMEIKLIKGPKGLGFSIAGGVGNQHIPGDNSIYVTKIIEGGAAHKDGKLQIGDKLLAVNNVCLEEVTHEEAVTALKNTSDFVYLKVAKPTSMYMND

Row | pKd | Binder
7 | 3.52 | B1

Target: T4, SYNJ2BP, P57105
Experiment: holdup assay
Parameters: key: below the threshold = too weak to quantify, mostly under pKd 3.1 to 4
Conditions: plain residues with an end cap or a label only (N-terminal biotin on a linker: ado-ado)

Row | pKd | Binder
8 | below the threshold | B1

Target: MAGI2_6, Q86UL8
Experiment: holdup assay
Parameters: key: below the threshold = too weak to quantify, mostly under pKd 3.1 to 4
Conditions: plain residues with an end cap or a label only (N-terminal biotin on a linker: ado-ado)

MAGI2_6, Q86UL8, sequence (Q86UL8 1141-1229): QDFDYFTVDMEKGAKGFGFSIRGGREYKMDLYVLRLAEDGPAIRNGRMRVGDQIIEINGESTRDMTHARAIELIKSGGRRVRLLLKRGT

Row | pKd | Binder
9 | below the threshold | B1

Target: T5, SNTB1, Q13884
Experiment: holdup assay
Parameters: key: below the threshold = too weak to quantify, mostly under pKd 3.1 to 4
Conditions: plain residues with an end cap or a label only (N-terminal biotin on a linker: ado-ado)

Row | pKd | Binder
10 | below the threshold | B1

Target: T6, FRMPD1, Q5SYB0
Experiment: holdup assay
Parameters: key: below the threshold = too weak to quantify, mostly under pKd 3.1 to 4
Conditions: plain residues with an end cap or a label only (N-terminal biotin on a linker: ado-ado)

Row | pKd | Binder
11 | below the threshold | B1

Target: Inadl_6, Q8NI35
Experiment: holdup assay
Parameters: key: below the threshold = too weak to quantify, mostly under pKd 3.1 to 4
Conditions: plain residues with an end cap or a label only (N-terminal biotin on a linker: ado-ado)

Inadl_6, Q8NI35, sequence (Q8NI35 1058-1167): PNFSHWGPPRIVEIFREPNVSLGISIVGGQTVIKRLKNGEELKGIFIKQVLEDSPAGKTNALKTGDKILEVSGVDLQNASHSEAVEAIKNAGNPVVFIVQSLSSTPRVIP

Row | pKd | Binder
12 | below the threshold | B1

Target: T7, PDZD7_3, Q9H5P4
Experiment: holdup assay
Parameters: key: below the threshold = too weak to quantify, mostly under pKd 3.1 to 4
Conditions: plain residues with an end cap or a label only (N-terminal biotin on a linker: ado-ado)

Row | pKd | Binder
13 | 3.91 | B1

Target: T8, GRIP1_5, Q9Y3R0
Experiment: holdup assay
Parameters: key: below the threshold = too weak to quantify, mostly under pKd 3.1 to 4
Conditions: plain residues with an end cap or a label only (N-terminal biotin on a linker: ado-ado)

Row | pKd | Binder
14 | below the threshold | B1

Target: T9, DLG3_2, Q92796
Experiment: holdup assay
Parameters: key: below the threshold = too weak to quantify, mostly under pKd 3.1 to 4
Conditions: plain residues with an end cap or a label only (N-terminal biotin on a linker: ado-ado)

Row | pKd | Binder
15 | below the threshold | B1

Target: Inadl_4, Q8NI35
Experiment: holdup assay
Parameters: key: below the threshold = too weak to quantify, mostly under pKd 3.1 to 4
Conditions: plain residues with an end cap or a label only (N-terminal biotin on a linker: ado-ado)

Inadl_4, Q8NI35, sequence (Q8NI35 547-651): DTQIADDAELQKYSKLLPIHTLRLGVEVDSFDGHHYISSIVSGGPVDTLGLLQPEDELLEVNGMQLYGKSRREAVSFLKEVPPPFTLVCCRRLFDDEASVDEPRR

Row | pKd | Binder
16 | below the threshold | B1

Target: GRIP2_4, Q9C0E4
Experiment: holdup assay
Parameters: key: below the threshold = too weak to quantify, mostly under pKd 3.1 to 4
Conditions: plain residues with an end cap or a label only (N-terminal biotin on a linker: ado-ado)

GRIP2_4, Q9C0E4, sequence (Q9C0E4 446-548): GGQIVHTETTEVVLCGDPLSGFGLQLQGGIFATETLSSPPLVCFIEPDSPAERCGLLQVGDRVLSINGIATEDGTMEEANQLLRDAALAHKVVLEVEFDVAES

Row | pKd | Binder
17 | below the threshold | B1

Target: T10, APBA3_1, O96018
Experiment: holdup assay
Parameters: key: below the threshold = too weak to quantify, mostly under pKd 3.1 to 4
Conditions: plain residues with an end cap or a label only (N-terminal biotin on a linker: ado-ado)

Row | pKd | Binder
18 | below the threshold | B1

Target: GRID2IP_2, A4D2P6
Experiment: holdup assay
Parameters: key: below the threshold = too weak to quantify, mostly under pKd 3.1 to 4
Conditions: plain residues with an end cap or a label only (N-terminal biotin on a linker: ado-ado)

GRID2IP_2, A4D2P6, sequence (A4D2P6 272-370): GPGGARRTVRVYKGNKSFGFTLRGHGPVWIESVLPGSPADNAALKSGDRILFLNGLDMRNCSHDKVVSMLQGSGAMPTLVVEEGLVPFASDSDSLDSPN

Row | pKd | Binder
19 | 5.18 | B1

Target: T11, SHANK1, Q9Y566
Experiment: holdup assay
Parameters: key: below the threshold = too weak to quantify, mostly under pKd 3.1 to 4
Conditions: plain residues with an end cap or a label only (N-terminal biotin on a linker: ado-ado)

Row | pKd | Binder
20 | 4.54 | B1

Target: T12, ARHGAP21, Q5T5U3
Experiment: holdup assay
Parameters: key: below the threshold = too weak to quantify, mostly under pKd 3.1 to 4
Conditions: plain residues with an end cap or a label only (N-terminal biotin on a linker: ado-ado)

Row | pKd | Binder
21 | 3.97 | B1

Target: T13, TJP3_3, O95049
Experiment: holdup assay
Parameters: key: below the threshold = too weak to quantify, mostly under pKd 3.1 to 4
Conditions: plain residues with an end cap or a label only (N-terminal biotin on a linker: ado-ado)

Row | pKd | Binder
22 | below the threshold | B1

Target: SCRIB_2, Q14160
Experiment: holdup assay
Parameters: key: below the threshold = too weak to quantify, mostly under pKd 3.1 to 4
Conditions: plain residues with an end cap or a label only (N-terminal biotin on a linker: ado-ado)

SCRIB_2, Q14160, sequence (Q14160 857-960): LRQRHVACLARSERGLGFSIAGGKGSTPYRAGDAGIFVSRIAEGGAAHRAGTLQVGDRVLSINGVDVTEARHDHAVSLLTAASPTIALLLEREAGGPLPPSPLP

Row | pKd | Binder
23 | below the threshold | B1

Target: MAGI2_5, Q86UL8
Experiment: holdup assay
Parameters: key: below the threshold = too weak to quantify, mostly under pKd 3.1 to 4
Conditions: plain residues with an end cap or a label only (N-terminal biotin on a linker: ado-ado)

MAGI2_5, Q86UL8, sequence (Q86UL8 915-1017): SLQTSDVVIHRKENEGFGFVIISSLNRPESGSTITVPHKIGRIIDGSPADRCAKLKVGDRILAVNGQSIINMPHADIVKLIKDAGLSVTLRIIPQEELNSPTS

Row | pKd | Binder
24 | below the threshold | B1
